Reference: PMC8020655

Target: His6-PopA_(R357G) labelled with Atto-488 (Caulobacter crescentus)
Assay: MST

Kd: 5.1 µM
Substance: His6-SmrF (from UniProt A0A0H3C860 1-122) (natural protein)
